We go through 5 molecules from US20090215689A1 (TECNOGEN S P A, published 2009).

In assay [1] the target is T1, Human recombinant FGF2 (Fibroblast growth factor-2) (human, UniProt P09038 134-288, limits assumed). Put plainly: SPR competition (printed as ID50): competitor with FGF2 0.8 µM in the mobile phase over immobilized PTX3. As to the method: (§1) The response was recorded at the end of injection and plotted as a function of the antagonist concentration.
(§2) A BIAcore X apparatus (BIAcore Inc, Piscataway, N.J.) was used.

Assay [2] concerns the target T1, Human recombinant FGF2 (Fibroblast …). Put plainly: SPR competition: competitor with FGF2 0.8 µM in the mobile phase over immobilized PTX3.
From the text: as §2

Assay [3] has the same target. Put plainly: solid phase assay: peptide-coated wells (200 µg/well), FGF2 80 nM, detection with anti-FGF2 antibody. Here is the method:
(§3) Then, wells were overcoated for 2 hours at room temperature with 5% dry milk in coating buffer. […] Then, 100 μl/well of the chromogen substrate 2,29-azinobis(3-ethylbenzthiazolinesulfonic acid) were added. Absorbance values were read at 405 nm in an automatic ELISA reader.

Assay [4] has the same target. The assay is described as above. As to the method: as §1, §3
The source holds these as a separate data set.

For assay [5] the target is unchanged. Put plainly: SPR competition: FGF2 0.8 µM over immobilized PTX3 with the peptide in the mobile phase. Here is the method:
The response was recorded at the end of injection and plotted as a function of the antagonist concentration. […] The response was recorded at the end of injection and plotted as a function of the antagonist concentration.
as §2

T1 sequence (P09038 134-288 limits assumed): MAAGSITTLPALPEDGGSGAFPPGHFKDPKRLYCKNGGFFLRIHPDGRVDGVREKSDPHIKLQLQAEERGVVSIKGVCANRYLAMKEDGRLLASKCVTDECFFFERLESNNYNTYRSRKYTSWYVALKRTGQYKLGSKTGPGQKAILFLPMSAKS

B1: synthetic peptide PTX3(82-110) (peptide)
peptide: RGELQRLREELGRLAESLARPCAPGAPAE
notes: also called parental peptide PTX3(82-110)
Broadly, the IC50 is the concentration at which inhibition is half-maximal. With B1, in assay [1], the IC50 was 30 µM. The “fold lower potency than free full length PTX3” value in assay [2] amounted to 30 fold. As to DKLFIMLENSQMRERMLLQATDDVLRGEL [synthetic peptide PTX3(57-85)], the binding result in assay [3] is “no binding (tested: FGF2 80 nM)”. Still for that read-out and setting: the result for DNEIDNGLHPTEDPTPCDCGQEHSEWDKLF [synthetic peptide PTX3(31-60)] reads “no binding (tested: FGF2 80 nM)”. With RGELQRLREELGRLAESLAR [synthetic peptide PTX3(82-101)], the binding result in assay [4] was “no binding (tested: FGF2 80 nM)”.

With RGELQRLREELGRLA [synthetic peptide PTX3(82-96)], the binding result in assay [5] is listed as “no binding (tested: about 3000 µM)”.
